Experimental data published in US20230280350A1 (NORDIC BIOSCIENCE A S, published 2023).
No end group written: not given here. *: point of attachment. Biotin = O=C1N[C@H]2[C@H](CS[C@H]2CCCCC(=O)*)N1

Assays:
[1] = molecular target: T1, Nonsense peptide VPKDLPPDTT (not fully specified); test: competitive ELISA, peptide against coated Biotin-K-…
T1 construct: Control peptide
T1 peptide: VPKDLPPDTT
Source text: (§1) The PRO-C16 amino acid sequence 1595′-[…] (SEQ ID NO: 1) located at the C-terminal was used to generate an antibody specific for the C-terminal of col-16. It was additionally used to design the selection peptide ([…]; SEQ ID NO: 1) (Table 1). The sequence was BLASTed for homology to other human proteins and species using the NPS@: network protein sequence analysis with the Uniprot/Swiss-Prot database (20). The amino acid sequence is unique to human col-16. A biotinylated peptide (Biotin-K-[…]) was used to coat the streptavidin-coated plates applied in the ELISA. An elongated peptide ([…]; SEQ ID NO: 2), a truncated peptide ([…]; SEQ ID NO: 3), a nonsense peptide ([…]; SEQ ID NO: 5) and a nonsense biotinylated peptide (Biotin-[…]; SEQ ID NO: 6) were included to test the specificity of the antibody.
(§2) The PRO-C16 competitive ELISA procedure was as follows; a 96-well streptavidin-coated microtiter plate was coated with 100 µl of biotinylated peptide (Biotin-K-[…]; SEQ ID NO: 4) dissolved in assay buffer (50 mM PBS-BTB, 4 g/l NaCl, pH 7.4) (final concentration of […]). The plate was incubated for 30 minutes at 20° C. with shaking (300 rpm) and then washed five times in washing buffer (20 mM TRIS, 50 mM NaCl, pH 7.2). A volume of 20 µl of sample/control/selection peptide ([…]; SEQ ID NO: 1) was added followed by immediately addition of 100 µl of monoclonal antibody diluted in assay buffer (final concentration of 62.5 ng/ml). The plate was incubated for 1 hour at 20° C. with shaking followed by five washes in washing buffer. Then, 100 µl of goat anti-mouse HRP-conjugated IgG antibody (Thermo Scientific, Waltham, MA, USA; cat. #31437) diluted in assay buffer (final concentration of 130 ng/ml) was added to each well. […] To stop the reaction of TMB, 100 µl of 1% H₂SO₄ was added and the plate was analyzed in a VersaMax ELISA microplate reader at 450 nm with 650 nm as reference. A standard curve was plotted using a 4-parametric mathematical fit model and data were analyzed using the Softmax Pro v. […]

[2] = molecular target: T2, Truncated peptide PMKTMKGPF; test: as above
T2 construct: Selection peptide without its C-terminal glycine
T2 peptide: PMKTMKGPF
Source text: as §1, §2

[3] = molecular target: T3, Elongated peptide PMKTMKGPFGG; test: competitive ELISA, peptide against coated Biotin-K-PMKTMKGPFG
T3 construct: Selection peptide with one extra glycine at the C-terminus
T3 peptide: PMKTMKGPFGG
Source text: as §1, §2

[4] = molecular target: T4, Nonsense biotinylated peptide Biotin-VPKDLPPDTT; test: ELISA with the nonsense biotinylated peptide on streptavidin plates
T4 construct: Control coating peptide
T4 peptide: Biotin-VPKDLPPDTT

binding result [1]: no binding
binding result [2]: no binding
binding result [3]: no binding
binding result [4]: no binding
B1: monoclonal antibody of the PRO-C16 assay, raised against KLH-CGG-… (antibody, mouse IgG2b, kappa, V domains shown)
VH: EVQLQQSGAELVRSGASVKLSCTASGFNIKDYYIHWVKQRPEQGLEWIGWIDHDNGDTEYDPKFQGKATLTADTSSNTAYLQLSSLTSEDTAVYYCNAKGPRYGYEEDWFAYWGQGTLVTVST
VL: DVLMTQTPLSLPVSLGDQASISCRSSQSIVHNNGNTYLEWFLQKPGQSPKLLIYKVSNRFSGVPDRFSGSGSGTDFTLRISRVEADDLGVYYCFQGSHVPRTFGGGTKLEIKR
notes: also called PRO-C16 antibody; C16-C
